Where no end group is shown, it is not given here. The star is where a group is joined. Biotin = O=C1N[C@H]2[C@H](CS[C@H]2CCCCC(=O)*)N1
B1: peptide encoded by linear DNA template 300-53-C (cow antibody scaffold with RDPGRLIFQS and Strep-tag II) (designed binder)
chain: MGCTSVHQETKKYQSRDPGRLIFQSSYTYNYEHVDVWGCGSAWSHPQFEKGS

Tests used:
Thrombin [1] = target: T1, Thrombin (UniProt P00734 328-622); test: SPR (Biacore single cycle kinetics)
Thrombin [2] = target: T1, Thrombin; test: SPR (Biacore multiple cycle kinetics)

Row | Binder | Kd (Thrombin [1]) [nM] | Kd (Thrombin [2]) [nM]
1 | B1 | 0.96 | –
2 | Biotin-GCTSVHQETKKYQSRDPGRLIFQSSYTYNYEHVDVWGCG (designed binder, cysteine pairing not given here) [Biotin-GCTSVHQETKKYQSRDPGRLIFQSSYTYNYEHVDVWGCG] | – | 0.78
3 | Biotin-GGGGSGGGGSRDPGRLIFQS [Biotin-GGGGSGGGGSRDPGRLIFQS] | – | 36.6
